Laboratory results published in publication PMC10269782.

Assays:
[1] = biological target: Spo7^3R (co-IP construct) (Botryosphaeria dothidea); assay: co-IP; GFP and Flag fusion constructs transformed in pairs into B. dothidea LW03 (Spo7-Pah1 also in the ΔNem1 mutant); total proteins incubated with anti-GFP agarose; eluates blotted with anti-Flag and anti-GFP antibodies
[2] = biological target: Spo7^I52R (co-IP construct) (Botryosphaeria dothidea); assay: as above
[3] = biological target: Spo7^L50R (co-IP construct) (Botryosphaeria dothidea); assay: as above
[4] = biological target: Spo7^L51R (co-IP construct) (Botryosphaeria dothidea); assay: as above
Nem1-3×Flag = assay: co-IP (GFP IP, anti-Flag western blot, band intensity quantified); settings: ΔSpo7::Nem1-Flag strain; parent: est. 100; read off a plot

| Substance | percent of parent (Nem1-3×Flag) | also measured |
| --- | --- | --- |
| Nem1-3×Flag (enzyme) |  | percent reduction of the interaction level against wild-type Spo7 (Nem1-Flag band in GFP IP) [1]: 93%; percent reduction of the interaction level against wild-type Spo7 (Nem1-Flag band in GFP IP) [2]: 55%; percent reduction of the interaction level against wild-type Spo7 (Nem1-Flag band in GFP IP) [3]: 72%; percent reduction of the interaction level against wild-type Spo7 (Nem1-Flag band in GFP IP) [4]: 68% |
| GFP-Spo7 L51A | 100% |  |
| GFP-Spo7 I52A | 98% |  |
| GFP-Spo7 L50A; L51A; I52A | 97% |  |
| GFP-Spo7 L50A | 108% |  |
